Results: patent US20180036441A1 (Dana-Farber, published 2018)
Changes are numbered by the printed parent chain.

B1: VH5 + VL3 (antibody, V domains shown)
VH: EVQLVQSGAEVKKPGESLKISCKGSGYAFSNFWMNWVRQMPGKGLEWMGQIYPGDGDTNYNGKFKGQVTISADKSISTAYLQWSSLKASDTAMYYCARSYYRSAWFAYWGQGTLVTVSL
VL: EIVLTQSPATLSLSPGERATLSCRASQSIGTSIHWYQQKPGQAPRLLIYYASESISGIPARFSGSGSGTDFTLTISSLEPEDFAVYYCQQSNNWPLTFGGGTKVEIK
notes: Humanized IgG expressed in HEK293; also called humanized antibody VH5+VL3
B2: VH5 + VL4 (antibody, V domains shown)
VH: B1 VH
VL: AIQLTQSPSSLSASVGDRVTITCRASQSIGTSIHWYQQKPGKAPKLLIYYASESISGVPSRFSGSGSGTDFTLTISSLQPEDFATYYCQQSNNWPLTFGGGTKVEIK
notes: Humanized IgG expressed in HEK293; also called humanized antibody VH5+VL4
B3: VH2 + VL3 (antibody, V domains shown)
VH: QVQLVQSGAEVKKPGASVKVSCKASGYAFSNFWMNWVRQAPGQGLEWMGQIYPGDGDTNYNGKFKGRVTMTRDTSTSTVYMELSSLRSEDTAVYYCARSYYRSAWFAYWGQGTLVTVSS
VL: B1 VL
notes: Humanized IgG expressed in HEK293; also called humanized antibody VH2+VL3
B4: VH2 + VL1 (antibody, V domains shown)
VH: B3 VH
VL: EIVLTQSPDFQSVTPKEKVTITCRASQSIGTSIHWYQQKPDQSPKLLIKYASESISGVPSRFSGSGSGTDFTLTINSLEAEDAATYYCQQSNNWPLTFGQGTKVEIK
notes: Humanized IgG expressed in HEK293; also called humanized antibody VH2+VL1
B5: VH2 + VL4 (antibody, V domains shown)
VH: B3 VH
VL: B2 VL
notes: Humanized IgG expressed in HEK293; also called humanized antibody VH2+VL4
B6: VH1 + VL4 (antibody, V domains shown)
VH: B3 VH with A16S, M70I, R72A, T74K, V79A
VL: B2 VL
notes: Humanized IgG expressed in HEK293; also called humanized antibody VH1+VL4
B7: VH3 + VL1 (antibody, V domains shown)
VH: B3 VH with T76I, V79A, S85R, E89D
VL: B4 VL
notes: Humanized IgG expressed in HEK293; also called humanized antibody VH3+VL1
B8: VH1 + VL1 (antibody, V domains shown)
VH: B3 VH with A16S, M70I, R72A, T74K, V79A
VL: B4 VL
notes: Humanized IgG expressed in HEK293; also called humanized antibody VH1+VL1
B9: VH4 + VL1 (antibody, V domains shown)
VH: B3 VH with S17T, V20I, A24V, R38Q, Q43K, M70I, R72A, S77D, V79A, S119R
VL: B4 VL
notes: Humanized IgG expressed in HEK293; also called humanized antibody VH4+VL1
B10: VH3 + VL4 (antibody, V domains shown)
VH: B3 VH with T76I, V79A, S85R, E89D
VL: B2 VL
notes: Humanized IgG expressed in HEK293; also called humanized antibody VH3+VL4

What follows are binders tested against T1, MUC1 on HCT116/MUC1 cells (UniProt P15941 24-1255, limits assumed) (assay: FACS titration, HCT116/MUC1 cells, antibody at 0.977 nM).
T1 construct: whole, on cells; also called MUC1 overexpressed cell line
T1 sequence (P15941 24-1255 limits assumed): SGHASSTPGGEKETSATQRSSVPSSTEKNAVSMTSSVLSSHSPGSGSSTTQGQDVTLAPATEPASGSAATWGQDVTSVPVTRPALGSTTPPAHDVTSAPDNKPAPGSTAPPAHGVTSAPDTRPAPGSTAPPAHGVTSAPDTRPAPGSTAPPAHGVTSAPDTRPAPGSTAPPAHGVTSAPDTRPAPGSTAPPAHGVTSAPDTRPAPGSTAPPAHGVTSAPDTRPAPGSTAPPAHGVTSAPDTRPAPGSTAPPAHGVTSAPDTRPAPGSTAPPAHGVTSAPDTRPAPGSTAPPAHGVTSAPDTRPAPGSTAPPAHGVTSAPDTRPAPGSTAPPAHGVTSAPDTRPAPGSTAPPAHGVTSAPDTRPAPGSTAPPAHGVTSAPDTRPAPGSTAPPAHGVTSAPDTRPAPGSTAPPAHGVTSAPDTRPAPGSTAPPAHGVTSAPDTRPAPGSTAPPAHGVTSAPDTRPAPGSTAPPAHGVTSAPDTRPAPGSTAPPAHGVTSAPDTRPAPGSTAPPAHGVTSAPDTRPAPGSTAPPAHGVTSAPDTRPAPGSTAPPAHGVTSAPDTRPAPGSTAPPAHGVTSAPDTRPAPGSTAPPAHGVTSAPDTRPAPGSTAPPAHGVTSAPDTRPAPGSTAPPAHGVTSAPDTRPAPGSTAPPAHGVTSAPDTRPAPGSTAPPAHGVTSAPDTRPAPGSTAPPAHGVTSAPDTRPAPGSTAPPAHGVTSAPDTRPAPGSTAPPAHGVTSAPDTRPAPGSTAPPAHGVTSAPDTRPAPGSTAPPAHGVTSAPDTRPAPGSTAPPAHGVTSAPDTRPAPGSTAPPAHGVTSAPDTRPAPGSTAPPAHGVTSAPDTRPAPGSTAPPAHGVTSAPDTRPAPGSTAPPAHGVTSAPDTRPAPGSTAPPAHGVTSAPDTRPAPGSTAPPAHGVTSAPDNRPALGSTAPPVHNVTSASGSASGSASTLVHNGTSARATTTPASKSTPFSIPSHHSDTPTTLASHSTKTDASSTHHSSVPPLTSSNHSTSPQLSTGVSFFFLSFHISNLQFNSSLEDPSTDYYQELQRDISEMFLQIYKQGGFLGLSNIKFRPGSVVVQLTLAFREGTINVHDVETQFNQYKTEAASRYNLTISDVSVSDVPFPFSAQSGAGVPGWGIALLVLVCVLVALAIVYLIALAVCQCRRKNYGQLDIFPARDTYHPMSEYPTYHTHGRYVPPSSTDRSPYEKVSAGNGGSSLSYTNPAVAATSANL
Procedure: (§1) To assess cell binding, 2×10⁵ HCT116/MUC1 cells per well were washed with PBS twice and incubated in 200 μl of serial dilutions of chimeric or humanized antibodies for 1 hour at room temperature. After washing 3 times with PBS, secondary antibody (2 μg/ml Alexa Flour®488 goat anti-human IgG) was added to cells and incubated for 30 minutes at room temperature. After washing with PBS, cells were analyzed by using FACSCalibur (BD Bioscience, San Jose, Calif.) and Flowjo software.

Row | Binder | geometric mean
1 | B1 | 4.13
2 | B2 | 4.01
3 | B3 | 2.83
4 | B4 | 3.68
5 | B5 | 3.76
6 | B6 | 2.86
7 | B7 | 6.94
8 | B8 | 3.17
9 | B9 | 2.51
10 | B10 | 25.6

These binders were tested against T1, MUC1 on HCT116/MUC1 cells (assay: FACS titration, HCT116/MUC1 cells, antibody at 62.5 nM).
Procedure: as §1

Row | Binder | geometric mean
11 | B1 | 141
12 | B2 | 190
13 | B3 | 124
14 | B4 | 265
15 | B5 | 161
16 | B6 | 111
17 | B7 | 263
18 | B8 | 290
19 | B9 | 188
20 | B10 | 171

These binders were tested against T1, MUC1 on HCT116/MUC1 cells (assay: FACS titration, HCT116/MUC1 cells, antibody at 125 nM).
Procedure: as §1

Row | Binder | geometric mean
21 | B1 | 126
22 | B2 | 202
23 | B3 | 147
24 | B4 | 306
25 | B5 | 188
26 | B6 | 132
27 | B7 | 305
28 | B8 | 332
29 | B9 | 225
30 | B10 | 208

What follows are binders tested against T1, MUC1 on HCT116/MUC1 cells (assay: FACS titration, HCT116/MUC1 cells, antibody at 1.953 nM).
Procedure: as §1

Row | Binder | geometric mean
31 | B1 | 8.05
32 | B2 | 5.71
33 | B3 | 3.25
34 | B4 | 4.38
35 | B5 | 5.22
36 | B6 | 3.16
37 | B7 | 11.4
38 | B8 | 5.68
39 | B9 | 2.94
40 | B10 | 19

The binders below were run against T1, MUC1 on HCT116/MUC1 cells (assay: FACS titration, HCT116/MUC1 cells, antibody at 500 nM).
Procedure: as §1

Row | Binder | geometric mean
41 | B1 | 170
42 | B2 | 199
43 | B3 | 178
44 | B4 | 342
45 | B5 | 212
46 | B6 | 141
47 | B7 | 334
48 | B8 | 351
49 | B9 | 253
50 | B10 | 235

Each binder was assayed against T1, MUC1 on HCT116/MUC1 cells (assay: FACS titration, HCT116/MUC1 cells, antibody at 7.812 nM).
Procedure: as §1

Row | Binder | geometric mean
51 | B1 | 31
52 | B2 | 28.6
53 | B3 | 11.8
54 | B4 | 6.37
55 | B5 | 19
56 | B6 | 6.83
57 | B7 | 36
58 | B8 | 23.1
59 | B9 | 8.87
60 | B10 | 22.2

What follows are binders tested against T1, MUC1 on HCT116/MUC1 cells (assay: FACS titration, HCT116/MUC1 cells, antibody at 0.244 nM).
Procedure: as §1

Row | Binder | geometric mean
61 | B1 | 2.82
62 | B2 | 2.84
63 | B3 | 2.73
64 | B4 | 3
65 | B5 | 2.88
66 | B6 | 2.82
67 | B7 | 3.1
68 | B8 | 2.72
69 | B9 | 2.54
70 | B10 | 9.23

Each binder was assayed against T1, MUC1 on HCT116/MUC1 cells (assay: FACS titration, HCT116/MUC1 cells, antibody at 0.488 nM).
Procedure: as §1

Row | Binder | geometric mean
71 | B1 | 3.27
72 | B2 | 3.52
73 | B3 | 2.74
74 | B4 | 3.27
75 | B5 | 3.16
76 | B6 | 2.85
77 | B7 | 3.81
78 | B8 | 3
79 | B9 | 2.54
80 | B10 | 19.5

What follows are binders tested against T1, MUC1 on HCT116/MUC1 cells (assay: FACS titration, HCT116/MUC1 cells, antibody at 15.625 nM).
Procedure: as §1

Row | Binder | geometric mean
81 | B1 | 61.5
82 | B2 | 67.1
83 | B3 | 26.2
84 | B4 | 29
85 | B5 | 28.4
86 | B6 | 27.7
87 | B7 | 71.3
88 | B8 | 68.7
89 | B9 | 27
90 | B10 | 54.6

These binders were tested against T1, MUC1 on HCT116/MUC1 cells (assay: FACS titration, HCT116/MUC1 cells, antibody at 31.25 nM).
Procedure: as §1

Row | Binder | geometric mean
91 | B1 | 110
92 | B2 | 152
93 | B3 | 60.4
94 | B4 | 126
95 | B5 | 74.6
96 | B6 | 73.3
97 | B7 | 192
98 | B8 | 185
99 | B9 | 113
100 | B10 | 130

What follows are binders tested against T1, MUC1 on HCT116/MUC1 cells (assay: FACS titration, HCT116/MUC1 cells, antibody at 3.906 nM).
Procedure: as §1

Row | Binder | geometric mean
101 | B1 | 15.5
102 | B2 | 15.3
103 | B3 | 4.03
104 | B4 | 5.23
105 | B5 | 9.37
106 | B6 | 4.1
107 | B7 | 16.3
108 | B8 | 9.54
109 | B9 | 4.22
110 | B10 | 12

Each binder was assayed against T2, MUC1-SEA-His protein (UniProt P15941 1039-1148, limits assumed) (assay: SPR Biacore T200, antibody captured, antigen as analyte).
T2 construct: domain: SEA; Recombinant antigen used for ELISA coating and as Biacore analyte; also called MUC-SEA-His; antigen protein; not shown: His tag
T2 sequence (looked up): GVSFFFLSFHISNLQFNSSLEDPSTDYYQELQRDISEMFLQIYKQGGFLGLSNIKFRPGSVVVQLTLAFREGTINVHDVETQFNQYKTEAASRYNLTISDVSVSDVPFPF
Procedure: Antibody affinity was determined using a Surface Plasmon Resonance (SPR) biosensor, Biacore T200 (GE Healthcare). Antibody was immobilized on the sensor chip through Fc capture method. Antigen protein was used as the analyte. The data of dissociation (kd) and association (ka) rate constants were obtained using Biacore T200 evaluation software. The apparent equilibrium dissociation constants (KD) were calculated from the ratio of kd over ka. For affinity ranking, twenty-five humanized antibodies plus chimericantibody were injected and captured on sensor chip individually. The antibodies were ranked based on their dissociation rates (kd).

Row | Binder | koff [s⁻¹]
111 | B1 | 0.0164
112 | B2 | 0.0179
113 | B3 | 0.0124
114 | B4 | 0.00133
115 | B5 | 0.00741
116 | B6 | 0.0124
117 | B7 | 0.0015
118 | B8 | 0.0021
119 | B9 | 0.00261
120 | B10 | 0.00902

The binders below were run against T1, MUC1 on HCT116/MUC1 cells (assay: FACS titration, HCT116/MUC1 cells, antibody at 250 nM).
Procedure: as §1

Row | Binder | geometric mean
121 | B1 | 167
122 | B2 | 193
123 | B3 | 167
124 | B4 | 337
125 | B5 | 216
126 | B6 | 142
127 | B7 | 321
128 | B8 | 363
129 | B9 | 250
130 | B10 | 227

These binders were tested against T1, MUC1 on HCT116/MUC1 cells (assay: FACS titration on HCT116/MUC1 cells).
Procedure: as §1

Row | Binder | EC50 [µM]
131 | B1 | 0.0219
132 | B2 | 0.0206
133 | B3 | 0.0454
134 | B4 | 0.0587
135 | B5 | 0.0413
136 | B6 | 0.0319
137 | B7 | 0.0287
138 | B8 | 0.0303
139 | B9 | 0.0367
140 | B10 | 0.0331
